The values below come from publication PMC5730846, “Tumor suppressor Tsc1 is a new Hsp90 co‐chaperone that facilitates folding of kinase and non‐kinase clients” (The EMBO Journal, 2017).

The series concerns the molecule itself. Kind of series: SEC; Tsc1-D-His6 concentrated to 10 mg/ml, Superdex 75 gel filtration. For orientation: In gel filtration, larger molecules generally elute earlier.

B1: Tsc1-D-His6 (domain or fragment, UniProt Q92574 998-1164, looked up)
chain: DGCSDSMVGHNEEASGHNGETKTPRPSSARGSSGSRGGGGSSSSSSELSTPEKPPHQRAGPFSSRWETTMGEASASIPTTVGSLPSSKSFLGMKARELFRNKSESQCDEDGMTSSLSESLKTELGKDLGVEAKIPLNLDGPHPSPPTPDSVGQLHIMDYNETHHEHS
notes: predicted monomer 22.1 kDa; dimer by gel filtration; also called fragment D; source: E. coli Tuner pLysS, purified (Ni-NTA)
A word on the stoichiometry N: it is a count of units in the complex or per binding partner. Regarding B1, the “stoichiometry N” value is 2.
